Test results as given in patent publication US20240392004A1 (IMMUNOWAKE, published 2024).

Key:
Test in all cases: cell-based or functional assay
[1] = biological target: human IL-12 receptor complex (IL-12Rβ1 and IL-12Rβ2) (human, UniProt P42701 24-662; Q99665 24-862)
[2] = biological target: T1, human IL-2 receptor (IL-2Rα, IL-2Rβ, IL-2Rγ) (human, UniProt P01589 22-272; P14784 27-551; P31785 23-369)
T1 sequence (looked up) 1: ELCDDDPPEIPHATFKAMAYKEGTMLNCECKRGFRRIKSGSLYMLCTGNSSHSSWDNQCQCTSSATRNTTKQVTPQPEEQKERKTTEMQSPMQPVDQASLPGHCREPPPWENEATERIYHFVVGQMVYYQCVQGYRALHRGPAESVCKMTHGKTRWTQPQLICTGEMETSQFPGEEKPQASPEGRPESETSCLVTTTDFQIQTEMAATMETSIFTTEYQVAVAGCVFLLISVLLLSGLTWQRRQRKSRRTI
T1 sequence (looked up) 2: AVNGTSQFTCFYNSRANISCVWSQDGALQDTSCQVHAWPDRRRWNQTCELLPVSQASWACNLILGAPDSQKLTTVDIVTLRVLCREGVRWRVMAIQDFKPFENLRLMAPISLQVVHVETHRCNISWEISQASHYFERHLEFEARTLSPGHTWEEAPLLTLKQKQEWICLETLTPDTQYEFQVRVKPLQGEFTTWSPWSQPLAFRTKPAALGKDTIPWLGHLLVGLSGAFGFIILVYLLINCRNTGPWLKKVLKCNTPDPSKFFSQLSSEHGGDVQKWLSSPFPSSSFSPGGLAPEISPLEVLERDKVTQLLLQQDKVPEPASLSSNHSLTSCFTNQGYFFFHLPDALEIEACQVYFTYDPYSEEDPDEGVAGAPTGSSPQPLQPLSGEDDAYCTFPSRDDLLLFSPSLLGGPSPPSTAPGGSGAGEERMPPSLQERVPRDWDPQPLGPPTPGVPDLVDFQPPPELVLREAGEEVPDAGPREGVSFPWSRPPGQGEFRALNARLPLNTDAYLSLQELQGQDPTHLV
T1 sequence (looked up) 3: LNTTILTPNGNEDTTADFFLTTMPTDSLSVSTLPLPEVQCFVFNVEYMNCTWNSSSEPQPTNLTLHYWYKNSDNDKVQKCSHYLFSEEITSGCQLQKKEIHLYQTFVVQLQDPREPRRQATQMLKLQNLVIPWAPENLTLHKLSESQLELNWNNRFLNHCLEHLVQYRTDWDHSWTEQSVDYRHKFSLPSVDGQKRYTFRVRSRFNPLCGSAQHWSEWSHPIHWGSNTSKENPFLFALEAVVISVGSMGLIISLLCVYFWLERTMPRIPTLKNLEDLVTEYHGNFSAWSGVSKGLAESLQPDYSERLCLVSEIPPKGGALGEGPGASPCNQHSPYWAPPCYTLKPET

[3] = biological target: T2, human TIGIT on HEK-Blue reporter cells (human, UniProt Q495A1 22-244)
T2 sequence (looked up): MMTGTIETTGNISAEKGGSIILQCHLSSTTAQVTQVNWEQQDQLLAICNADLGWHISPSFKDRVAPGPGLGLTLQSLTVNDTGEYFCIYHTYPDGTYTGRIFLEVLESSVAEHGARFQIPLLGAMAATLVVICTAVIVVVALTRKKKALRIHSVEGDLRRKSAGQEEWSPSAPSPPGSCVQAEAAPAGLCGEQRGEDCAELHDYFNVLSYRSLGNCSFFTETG

human IL-12 receptor complex (IL-12Rβ1 and IL-12Rβ2), sequence (Q99665 24-862, chain 2 of 2, other chains not shown): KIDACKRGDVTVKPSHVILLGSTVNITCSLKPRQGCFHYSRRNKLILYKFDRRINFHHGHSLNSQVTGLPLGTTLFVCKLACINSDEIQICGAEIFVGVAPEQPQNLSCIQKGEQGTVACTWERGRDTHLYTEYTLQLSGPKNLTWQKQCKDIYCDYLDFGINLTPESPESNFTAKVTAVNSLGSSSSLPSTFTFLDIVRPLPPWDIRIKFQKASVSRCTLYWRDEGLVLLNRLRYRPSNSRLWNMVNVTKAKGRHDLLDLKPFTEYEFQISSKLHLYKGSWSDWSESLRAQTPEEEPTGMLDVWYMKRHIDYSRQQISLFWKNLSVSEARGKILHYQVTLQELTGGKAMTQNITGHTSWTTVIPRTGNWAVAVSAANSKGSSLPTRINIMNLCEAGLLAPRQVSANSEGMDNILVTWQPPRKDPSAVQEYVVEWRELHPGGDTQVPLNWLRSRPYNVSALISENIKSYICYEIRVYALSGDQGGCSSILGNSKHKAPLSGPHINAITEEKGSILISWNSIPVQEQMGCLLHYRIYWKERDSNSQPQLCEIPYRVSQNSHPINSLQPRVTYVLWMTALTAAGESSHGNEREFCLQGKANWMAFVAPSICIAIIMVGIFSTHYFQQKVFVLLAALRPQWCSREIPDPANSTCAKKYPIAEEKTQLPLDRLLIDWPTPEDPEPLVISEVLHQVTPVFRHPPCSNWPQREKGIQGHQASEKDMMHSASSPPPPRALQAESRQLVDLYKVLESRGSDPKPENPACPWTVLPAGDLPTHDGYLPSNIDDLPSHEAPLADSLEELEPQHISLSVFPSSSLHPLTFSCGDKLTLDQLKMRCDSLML

B1: IL-12(E59A/F60A)/CD155-Fc (IL-12 at hinge) (Fc fusion)
chain 1: WPPPGTGDVVVQAPTQVPGFLGDSVTLPCYLQVPNMEVTHVSQLTWARHGESGSMAVFHQTQGPSYSESKRLEFVAARLGAELRNASLRMFGLRVEDEGNYTCLFVTFPQGSRSVDIWLRVLAKPQNTAEVQKVQLTGEPVPMARCVSTGGRPPAQITWHSDLGGMPNTSQVPGFLSGTVTVTSLWILVPSSQVDGKNVTCKVEHESFEKPQLLTVNLTVYYPPEVSISGYDNNWYLGQNEATLTCDARSNPEPTGYNWSTTMGPLPPFAVAQGAQLLIRPVDKPINTTLICNVTNALGARQAELTVQVKEGPPSEHSGISRNGGGGSGGGIWELKKDVYVVELDWYPDAPGEMVVLTCDTPEEDGITWTLDQSSEVLGSGKTLTIQVKAAGDAGQYTCHKGGEVLSHSLLLLHKKEDGIWSTDILKDQKEPKNKTFLRCEAKNYSGRFTCWWLTTISTDLTFSVKSSRGSSDPQGVTCGAATLSAERVRGDNKEYEYSVECQEDSACPAAEESLPIEVMVDAVHKLKYENYTSSFFIRDIIKPDPPKNLQLKPLKNSRQVEVSWEYPDTWSTPHSYFSLTFCVQVQGKSKREKKDRVFTDKTSATVICRKNASISVRAQDRYYSSSWSEWASVPCSGGGGSGGGSGGGGSRNLPVATPDPGMFPCLHHSQNLLRAVSNMLQKARQTLEFYPCTSEEIDHEDITKDKTSTVEACLPLELTKNESCLNSRETSFITNGSCLASRKTSFMMALCLSSIYEDLKMYQVEFKTMNAKLLMDPKRQIFLDQNMLAVIDELMQALNFNSETVPQKSSLEEPDFYKTKIKLCILLHAFRIRAVTIDRVMSYLNASGGGGSGGGDKTHTCPPCPAPEDEGGPSVFLFPPKPKDTLMISRTPEVTCVVVDVSHEDPEVKFNWYVDGVEVHNAKTKPREEQYNSTYRVVSVLTVLHQDWLNGKEYKCKVSNKALPAPIEKTISKAKGQPREPQVYVYPPSREEMTKNQVSLTCLVKGFYPSDIAVEWESNGQPENNYKTTPPVLDEDGSFALVSKLTVDKSRWQQGNVFSCSVMHEALHNHYTQKSLSLSPGK
chain 2: WPPPGTGDVVVQAPTQVPGFLGDSVTLPCYLQVPNMEVTHVSQLTWARHGESGSMAVFHQTQGPSYSESKRLEFVAARLGAELRNASLRMFGLRVEDEGNYTCLFVTFPQGSRSVDIWLRVLAKPQNTAEVQKVQLTGEPVPMARCVSTGGRPPAQITWHSDLGGMPNTSQVPGFLSGTVTVTSLWILVPSSQVDGKNVTCKVEHESFEKPQLLTVNLTVYYPPEVSISGYDNNWYLGQNEATLTCDARSNPEPTGYNWSTTMGPLPPFAVAQGAQLLIRPVDKPINTTLICNVTNALGARQAELTVQVKEGPPSEHSGISRNGGGGSGGGDKTHTCPPCPAPEKKGGPSVFLFPPKPKDTLMISRTPEVTCVVVDVSHEDPEVKFNWYVDGVEVHNAKTKPREEQYNSTYRVVSVLTVLHQDWLNGKEYKCKVSNKALPAPIEKTISKAKGQPREPQVYVLPPSREEMTKNQVSLLCLVKGFYPSDIAVEWESNGQPENRYMTWPPVLDSDGSFFLYSKLTVDKSRWQQGNVFSCSVMHEALHNHYTQKSLSLSPGK
IL-12 signal transduction, HEK-IL-12 [1]: < 0.2%
IL-2 signal transduction, HEK-IL-2 [2]: < 0.1%
IL-2 signal transduction, HEK-IL-2-TIGIT [3]: < 0.1%
IL-12 signal transduction, HEK-IL-12-TIGIT [3]: 21%
